Data from a protein production outcome set (Wang et al. 2014).

Assay: label from the status in PepcDB records

Row | Sequence | protein production
1 | TEKTKAVETTDVALAIDTLVQNGLKALDEMRQLNQEQVDYIVAKASVAALDAHGELALHAVEETGRGVFEDKATKNLFACEHVVNNMRHTKTVGVIEEDDVTGLTLIAEPVGVVCGITPTTNPTSTAIFKSLISLKTRNPIIFAFHPSAQESSAHAARIVRDAAIAAGAPENCVQWIEQPSIDATNALMNHDGIATILATGGNAMVKAAYSCGKPALGVGAGNVPAYVEKSANIRQAAHDIVMSKSFDNGMVCASE | not failed
2 | TERMDKVGDALEEVLSKALSQRTITVGVYEAAKLLNVDPDNVVLCLLAADEDDDRDVALQIHFTLIQAFCCENDINILRVSNPGRLAELLLLETDAGPAASEGAEQPPDLHCVLVTNPHSSQWKDPALSQLICFCRESRYMDQWVPVINLPER | failed
3 | TERVNLWMHDHGVRRPFRPVVADGYKKTINKNHSVNGSAPNFVHACDAAHLLRTVNAARAEGITQFALVHDSFGSLPSHAARFRQIIREEFVRMYEEHDVLTEVLEQAKCDLDEHNDKLSALVDMRADLTGKLNIKEVLNAEYAFAYP | failed
4 | TFVCASAGNHAQGFAFVCRHFGVPGVVFMPVTTPQQKIDKTRMFGAEFITIRLVGDIFDQCYKAAREHVEAIGGVMVPPFDHDDIIEGQATVAAEIAEQLPAGPVADLVVLPVGGGGLAAGVTGYLGDSLSADRFLFCEPEGAPSFRRSLELGGVVTLDQVDNFVDGAAVARIGDLNFAALRRFSPEQVMLLPENAICLTITEMLNVEGVVLEPAGALAITALEALGRDSLEGKIVVAVVSGGNF | failed
5 | TGDASKCLATGPGIASTVKTGEEVGFVVDAKTAGKGKVTCTVLTPDGTEAEADVIENEDGTYDIFYTAAKPGTYVIYVRFGGVDIPNSPFTVMATDGEVTAVEEAPVNACP | not failed
6 | TGFVGEMYGTGDILRSVSIPSETDKPIIVELAVAAMEELVRMAQTGDPLWLSTDNSVEILNEEEYFRTFPRGIGPKPLGLRSEASRQSAVVIMNHINLVEILMDVNQWSCVFSGIVSRALTLEVLSTGVAGNYNGALQVMTAEFQVPSPLVPTRENYFVRYCKQHSDGSWAVVDVSLDSLRPSTPILRTRRRPSGCLIQELPNGYSKVTWIEHMEVDDRSVHNMYKPLVQSGLAFGAKRWVATLERQCERLASSMASNIPGDLSVITSPEGRKSMLKLAERMVMSFCSGVGASTAHAWTTMSTTGSDDVRVMTRKSMV | failed
7 | TGPQGPPGPAGPKGAKGETGPQGPPGPAGPKGAKGDSGVPLSYEFTQKVESSNGTAVFGLLSNGFVEVRITGSYSSDVFNIPYNYRPLKAGTQMALFSTSGVGVAKVGEDKITIQGYSRNAQCSGTVLYPHREF | failed
8 | THANIQGLVKHVDYMAFSDQDTFLSVSNYAFDAFTFDFYASMLNAARLIIADEHTLLDTERLTDLILQENVNVMFATTALFNLLTDAGEDWMKGLRCILFGGERASVPHVRKALRIMGPGKLINCYGPTEGTVFATAHVVHDLPDSISSLPIGKPISN | failed
9 | TPHLVNLNEDPLMSECLLYYIKDGITRVGQADAERRQDIVLSGAHIKEEHCIFRSERSNSGEVIVTLEPCERSETYVNGKRVSQPVQLRSGNRIIMGKNHVFRFNHPEQARAEREKT | not failed
10 | TPLAEGAKAIETLCKLIKKGHIVAVKGIGGFHLVCDATKNRVVMELRERKKRPTKPFAVMFRSVFEIGKCTELSPIEEATILSPERPIVLISKRRPHRLEKFLISCDGVAPRVGTMGVFLPYSPLHSLLMEQAKIPLVFTSANLSGEPLIRDFKELCEKLSGVFDYYLDHDREILNPCDDSVVTIQNNKFQV | failed
11 | TPLPHQLEVAQKVVEKMNGKAILADEVGLGKTVEAGLILKEYMIRGLAKKILILVPASLVSQWVKELQEKFLIPAVEQKKSYVWEQCDIVVSSIDTAKRSPHREIVLSIPYDLVIIDEAHKLKNSKTKNYEFVRNLVKKYCLLLTATPIQNRIEEIFNLVSLLKPGHL | failed
12 | TPLSLTLDHWSEIRSRAHNLSVEIKKGPWRTFCASEWPTFDVGWPPEGTFDLTVIFEVKAIVFQDGPGSHPDQQPYITVWQDLVQNSPPWIK | not failed
13 | TQEYLAPKTTVRVGLVQWQMRSYKTLDDLFEQVEFFVDAVSDYKSDFVLFPEYFNAPLMSKYNDKGESQAIRGLAQYTEEIRDRFINLAISYNINIITGSMPLIKEDGLLYNAGFLCRRDGTYEMYEKLHVTPDEIKSWGLSGGKQLKTFDTDCAKIGILICYDVEFPELSRLMADQGMQILFVPFLTDTQNAYSRVRVCAQARAIENECFVVIAGSVGNLPRVHNMDIQYAQSGVFTPCDFAFPTDGKRAEATPNTEMILVSDVDLDLLNELHTYGSVRNLKDRRNDVYEVRFKKP | failed
14 | TSLEEITKAIMADSQNKVFTEKNIEPLFAAPKTARINIVGQAPGIKAQESRLYWNDKSGDRLREWMGVDYDTFYHSGYFAVIPMDFYYPGKGKSGDLPPRKGFAQKWHQPILDLLPDIQLTILIGNYAQKYYLHQKSSVKLTDTVAHYKKYLPDYFPLVHPSPRNQIWMSRHPWFEAQVVPDLKKIIQQIIQSS | not failed
15 | TSSLHPTRGKLLKRFAQIGPYIREQQCQESQFFFDCLAVCVNKKVTPEKREFWGWWMELERNGEQLIYYYQVGLFDKNGDWVNQVISKKDVIESIHETLIRFHDFLQAAVSELEMTLVPDEKMSNFPLPL | not failed
16 | TSSLQGNLLISVPRDFGLLFIAPNLPTFMAKHPHLHIEVEFNDKKIDLLSEGYDLALRIGYMEDSSLVSRKIGTTTVHFAASPNYLETNGIPQTPDDLEHHNGLLYKNAMNQVNWVGSRINQTQRFKIQSKVVSNSGFALL | failed

Row | Sequence | protein production
17 | TSTFYELFPKTFPKKLPIWTIDQSRLRKEYRQLQAQHHPDMAQQGSEQSSTLNQAYHTLKDPLRRSQYMLKLLRNIDLTQEQTSNEVTTSDPQLLLKVLDIHDELSQMDDEAGVKLLEKQNKERIQDIEAQLGQCYNDKDYAAAVKLTVELKYWYNLAKAFKDWAPGKQLEMNH | not failed
18 | TSTMGNLQTAINDKSGTLASQNFLDADEQKRNAYNQAVSAAETILNKQTGPNTAKTAVEQALNNVNNAKHALNGTQNLNNAKQAAITAINGASDLNQKQKDALKAQANGAQRVSNAQDVQHNATELNTA | not failed
19 | TTLQVREQTARRTLAALGYNECVTYSFIDEAAARLFGGGSEAVRVENPISSEMTHLRPDLLPGLLRAAARNQARGFADIALCEIGPVFAGGEPGEQQLQATGLLVGAVAPRDPFGSRRPVDVYDAKADAEAVLAAVGAPARMQISRKVPGWWHPGRSGIVGLGPNVLATFGEVHPRILREMDVKGPAVAFTVLVANVPLPKVKTPTRPALKL | failed
20 | TVVRYNPDNHADESFAARPALLWVHGMTDYFFHTEFAEFFHNAGFAVYGIDLRKCGRSYRPGQQWHYTSDLAHYFPDLTAAAEVISSTHPELVPVAHSTGGLIVPLWMSQMRTSNPAAIEKIPALVLNSPWLDMMYPPLFIKLITPMVRVLGKRSPTTIIPGGGLGAYGKSIHKNFYGEWDFDTTIKPVEGHKKSIGWLRAVMAGQAEIHHDHVNVGVDVLTLCSNKSWLKSEYTEDTNTSDAVLDVKHIQKWAPHLSSPSSRVDVEIIDNARHDIFLSRKPARDHASEVLNNWLQSK | failed
21 | TYHRLALQRENASLNPVGQMVAVNGYKISVFVKGQGSQTLVFLSGAGTASPILDFKDVYDGFSKEYKIVVVERADYGYSEDTSKSRDVSVILSETRQSLAKSQVSGPYIILSHSMASLETLLWQENYPSEVKAVVCLDWAFPESYFQLKRHPQMLRLARWESQLGLLRLLPRQLYMPNENLSDSDRRLYQEIAYRQLLSQAMLNESLCAKENDKKVNSTSIKSQMPVLLMVSNGKGTGFGQEQWRHYATSFAKGQKNMEVTYYDSPHYFYHYQTKEMIRSIEEFVQE | failed
22 | VALAATRAFYWIEAQSPDAATAFAQRVFDLYFSDRLDTASPEAVSRLGPEVGLEPEALLAGIADPALKETVRKIGEDAVARGIFGSPFFLVDDEPFWGWDRMEMMAEWIRTGGW | failed
23 | VDDTVNVANEYSRYPLENYQLDFYVDNSWGWLPWNWSDGIGKQVMYGLYAITNFIWTISLYVSNATGYLVQEAYSLDFISATADSIGKNMQTLAGVTPSGLSTEGFYVGFLLLLILVLGVYVVYTGLIKRETTKAIHAIVNFVMVFILSASFIAYAPDYIKKIN | failed
24 | VDIMLNTADISAAAILLPVEGAQLSELRQIPAEGGPVLHMLRLDSPQFSQFGEIYFSEVLPRRVKAWKRHSLMTQLFAVPVGCIHVVLYDGREKSPTSGRLAQVTLGRPDNYRLLRIPPQVWYGFAATGDTPALVANCTDIPHRQGESERAPQDAPFIPFSWAGADLSGTPVM | not failed
25 | VEASFCLGDNWQFLYVNDATCRMTEYSREQLLSMNLQDIDVDFALHDWEEIRQKNNYTFKTRYRSQSGRIFLVEMSLTFLEDQERRFSCVFVREKS | failed
26 | VELPTEYTEQFSSQPTLNSKPIIKFEFTGNSVDAPVLSMASKKFGIDFSILMSQIDYAGGVKFGFVIAEVEGDGEAITAAKCYLINNNVKVEVLGYVG | failed
27 | VEPQSQALLHAQPIISIRVWGVGRDSGRERDFAYVARDKLTQMLKCHVFRCEAPAKNIATSLHEICSKIMAERRNARCLVNGLSLDHSKLVDVPFQVEFPAPKNELVQKFQVYYLGNVPVAKPVGVDVINGALESVLSSSSREQWTPSHVSVAPATLTILHQQTEAVLGECRVRFLSFLAVGRDVHTFAFIMAAGPASFCCHMFWCEPNAASLSEAVQAACMLRYQKCLDARSQASTSCLPAPPAESVARRVGWTVRRGVQSLWGSLKPKRLGAHTP | failed
28 | VFADKLDITVDQKKIILPYWLSRPVSYGAVIIVSGGETAQWSLLLEQFAKGLARNGWSVVLLNCTKNNSIPWINQLPEVISTLRQNNNKRIVLVHYGDQLNLALEYFSKPQSKMINGLVMLSAYDLNRNLQKVPRLRFPLFDIVGQFDYDMVRQQRKSREEKFKENSYLAIDIPGATHDYQYSQQLLLAFVHGWM | not failed
29 | VFSSEDITETSPDKWLIDGDTPLDEVERAIGYELPEGDYETISGLLFDHANALLKTGDVIEIPLDFEPEDYLNNTSPTQRILRITVLEVERNVPVKLALALLE | not failed
30 | VFVGRCTGDMTEDELREFFSQYGDVMDVFIPKPFRAFAFVTFADDQIAQSLCGEDLIIKGISVHISNAEPKHNSN | not failed
31 | VGQRSDSDHVMAEATTDKRQGHTRGRTGNDRRTQIIKVATELFREKGYYATSLDDIADRIGFTKPAIYYYFKSKEDVLFAIVNSIVDEALERFHAIAAGPGSPGERIHALLVEHTRTILRNLDANTLFYNERGLLSPEREREMRKREREYTEIMQRLYAEGVATGELLDVDPTVATATLLGAAIWTYRWYDPEGRLSADEVVEQITRLLLNGYRRPA | not failed
32 | VGRLDDLKRSPLFQNVPEDAMREALKVVTERNFQPDELVVEQDAEGEALHLVTTGVVRVSRVSLGGRERVLGDIYAPGVVGETAVLAHQERSASVRALTPVRTLMLHREHFELILRRHPRVLWNLAEMLARRVTFLNDELIAFGQNTEAALTHVFANLYRQRLAAGVPQPEVLPLGTQDIMARTSSSRETVSRVLKRLEAHNILEVSPRSVTLLDLAALEALSFEGAETD | not failed
